Conditions: Homo sapiens; pH 2.7; Thermal; DSC; glycine 0.05 M; reversible: yes; whole UniProt chain shown

B1: Lysozyme C wild type, P61626 (protein)
chain: MKALIVLGLVLLSVTVQGKVFERCELARTLKRLGMDGYRGISLANWMCLAKWESGYNTRATNYNAGDRSTDYGIFQINSRYWCNDGKTPGAVNACHLSCSALLQDNIADAVACAKRVVRDPQGIRAWVAWRNRCQNRDVRQYVQGCGV
For B1, the Tm was 64.9 °C, the “heat capacity change of unfolding” value was 1.55 kcal/mol/K and the “unfolding enthalpy (calorimetric)” value was 114 kcal/mol.

From FireProtDB (doi:10.1046/j.1432-1327.1999.00918.x)
